From the RNAGym collection of RNA variant scans (doi:10.7554/elife.90254)

B1: LINE1-full (parent)
chain: UACGUAGGUGGUUUUCCCCUGAUAGUGCUAAGGGGGCCUGGAAGUUUGGACUGGGCAGAGCUCAACACAGCGUGGCAAAGUGGCUGUGGCUAGACUGCCUCUCUGGAUUCCUCGUCACUCAGCAGGGCAUCUCUGAGAGAAAUGCC

Variants of: B1
Test: self-cleavage, relative activity (ratio to wild type); higher = more cleavage; in vitro, sequencing; the parent is a self-cleaving ribozyme

| Variant | self-cleavage |
| --- | --- |
| G83A U100C | 1.21 |
| G80A A121C | 2.91 |
| A78G U132C | 1.39 |
| A78G U132A | 1.62 |
| G83A A140G | 0.49 |
| U81G U115A | 1.28 |
| A79G G125C | 1.28 |
| A79G G88U | 0.05 |
| U81G G122U | 1.42 |
| G80A A107U | 2.11 |
| G82A U104C | 0.83 |
| A79U G114A | 1.79 |
| G83A A142G | 0.97 |
| U81A A92G | 0.15 |
| A79C U119A | 1.01 |
| G80A A141G | 1.89 |
| A79U U112C | 1.95 |
| G82U A129G | 1.54 |
| A79U U102A | 2.23 |
| A79C G89A | 0.09 |
| A79G A121U | 1.13 |
| U81C U104C | 1.48 |
| G82A A136G | 2.28 |
| G82A U102C | 1.57 |

| Variant | self-cleavage |
| --- | --- |
| C84U A117G | 0.2 |
| U81A U134C | 2.26 |
| U81A U109A | 2.28 |
| U81G U134G | 1.73 |
| U81C U143C | 1.61 |
| A79G A124G | 0.62 |
| A79G C84G | 0.07 |
| A78G U91C | 0.29 |
| A79G U100A | 0.71 |
| A78G U109C | 1.38 |
| G80A G88U | 0.15 |
| A78U U104A | 1.8 |
| A78U U104C | 0.87 |
| U81C C101U | 2.14 |
| C84A A138G | 0.05 |
| A79U C116A | 1.49 |
| G82A A92G | 0.04 |
| G80A C128U | 1.9 |
| A79G U108C | 1.61 |
| A79G U108A | 1.17 |
| A79G C98G | 0.12 |
| U81A A121G | 2.65 |
| U81A A121U | 1.7 |
| U81A U112C | 2.32 |

| Variant | self-cleavage |
| --- | --- |
| G83A A92U | 0.27 |
| A78G A140G | 1.18 |
| A78G A140U | 1.38 |
| A78G G93A | 0.04 |
| U81C U96C | 0.2 |
| U81C U96A | 0.1 |
| G83U U102C | 0 |
| U81A C146A | 2.08 |
| A78G U130A | 1.1 |
| A78G U130C | 1.29 |
| A78G U130G | 1.88 |
| G80U U132A | 2.3 |
| G80U A124G | 1.69 |
| C84A A136U | 0.19 |
| G82A U91C | 0.94 |
| U81C G126U | 1.4 |
| U81G C113U | 1.99 |
| U81C U91A | 0.56 |
| U81G A140U | 1.35 |
| A79G G114A | 1.23 |
| A78G C146U | 1.06 |
| G80U A107G | 0.94 |
| U81A U108A | 2.18 |
| U81A U108C | 2.2 |

| Variant | self-cleavage |
| --- | --- |
| G80A U112C | 1.43 |
| A78U A117G | 2.93 |
| A78U A117C | 2.72 |
| G83A A124U | 0.79 |
| U81C G89A | 0.06 |
| A78G C84A | 0.09 |
| A78G G126C | 1.99 |
| A79G C101A | 0.68 |
| A78U G122A | 1.36 |
| A79C A129G | 1.93 |
| G83U U119A | 0.65 |
| C84U A142G | 0.12 |
| A79G G144C | 0.77 |
| C84G U104C | 0.11 |
| G83A U109A | 0.96 |
| A79U U109C | 1.34 |
| A79U U109G | 1.1 |
| G82A A94G | 0.26 |
| A78U U130C | 2.68 |
| A78U U100A | 1.13 |
| U81G U104C | 0.26 |
| G83A A121C | 0.67 |
| A78G A124G | 0.99 |
| G83A G144U | 1.55 |

| Variant | self-cleavage |
| --- | --- |
| A78U A107G | 2.47 |
| G80A A136U | 2.49 |
| A78G U85A | 0.09 |
| G83A C90U | 0.06 |
| A79G G126A | 1.51 |
| U81A A124U | 1.78 |
| G82A C99A | 0.78 |
| U81C G88A | 0.12 |
| U81C G88U | 0.05 |
| A78U U119C | 2.05 |
| U81C A141G | 1.07 |
| U81A A94U | 0.6 |
| U81A A94G | 0.37 |
| A79G U102A | 1.12 |
| A79G U102C | 0.89 |
| A79G U112A | 1.54 |
| A78G U96A | 0.06 |
| G83U U108C | 1.07 |
| A79G C110A | 1.29 |
| A79G C110U | 2.15 |
| A78U U115C | 1.72 |
| A78G U108A | 1.41 |
| A78G U108C | 1.64 |
| A78G U108G | 1.38 |

| Variant | self-cleavage |
| --- | --- |
| U81C A129G | 1.56 |
| G80C G86U | 0.04 |
| G82A U134G | 1.08 |
| A79G A129U | 1.16 |
| A79C A141G | 1.96 |
| G80A U87C | 0.2 |
| A79G A136G | 1.42 |
| A78G U115C | 1.51 |
| A79G U109C | 1.26 |
| A79G U109A | 1.19 |
| A78G G106A | 1.45 |
| A79U U91C | 1.04 |
| A78G G135A | 1.17 |
| C84A U112C | 0.16 |
| C84U A141G | 0.14 |
| A78U U87C | 0.84 |
| A79G A92U | 0.66 |
| A79G A92G | 0.18 |
| U81C U119C | 1.84 |
| G82A U85A | 0.14 |
| G82A U85C | 0.23 |
| C84A A140G | 0.13 |
| A78G G80A | 2.49 |
| U81A U102C | 2.18 |

| Variant | self-cleavage |
| --- | --- |
| A79G U143C | 1.47 |
| G80C A121G | 1.18 |
| A79G A94G | 0.35 |
| A79G U119G | 1.31 |
| A79G U119C | 1.48 |
| A78U G135A | 1.8 |
| A78U U102C | 1.12 |
| A79U U108C | 2.3 |
| A79C | 1.57 |
| A79U | 1.85 |
| A79G | 1.25 |
| G82A | 1.75 |
| G82U | 1.52 |
| A78U A136C | 2.73 |
| A79U A141U | 2.36 |
| A79U A121C | 1.64 |
| G83A U134C | 1.13 |
| U81C A140U | 1.9 |
| C84U A121U | 0.11 |
| G82U A117U | 1.3 |
| A78U C84A | 0.18 |
| G80C C98U | 0.26 |
| U81G A141G | 1.85 |
